# According to patent US20210284725A1 (Genentech, published 2021):
# T1: human IL-33 (His-tagged) (human, UniProt O95760 112-270, limits assumed)
# T1 construct: not shown: His tag
# T1 sequence (looked up): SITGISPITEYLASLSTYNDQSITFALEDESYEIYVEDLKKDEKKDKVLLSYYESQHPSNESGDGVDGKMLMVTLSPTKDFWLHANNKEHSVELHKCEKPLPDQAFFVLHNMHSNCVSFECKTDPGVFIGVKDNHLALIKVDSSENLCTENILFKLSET
# T2: human IL-33 (human, UniProt O95760 112-270, limits assumed)
# T2 sequence (looked up): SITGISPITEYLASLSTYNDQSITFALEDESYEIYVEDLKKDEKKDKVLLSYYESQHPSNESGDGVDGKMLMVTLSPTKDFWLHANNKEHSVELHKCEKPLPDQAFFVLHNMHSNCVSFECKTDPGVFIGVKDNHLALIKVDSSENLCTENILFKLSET
# Tests used:
# human IL-33 (His-tagged) = target: T1, human IL-33 (His-tagged); assay: SPR Biacore T200, IgG captured on protein A chip, His-tagged human IL-33 analyte, 25 C, n=2; column head prints 'KD (nM)' but the E-notation cells are in M, unit corrected to M
# Description: A protein A sensorchip (GE Healthcare) was used following manufacturer provided protocols to capture humanized anti-IL-33 antibodies using a BIACORE® T200 instrument (GE). Antibody binding was measured to human IL-33 (His-tagged) using multi-cycle kinetics. Sensorgrams for binding of IL-33 were recorded using an injection time of 2 min with a flow rate of 30 μl/min, at a temperature of 25° C., and with a running buffer of 10 mM HEPES, pH 7.4, 150 mM NaCl, 3 mM EDTA, and 0.005% TWEEN620. After injection, disassociation of IL-33 from the antibody was monitored for 10 min in running buffer. The surface was regenerated between binding cycles with a 30 μl injection of 10 mM Glycine HCl pH 1.5. After subtraction of a blank which contained running buffer only, sensorgrams observed for cytokine binding to anti-IL-33 antibody were analyzed using a 1:1 Langmuir binding model with software supplied by the manufacturer to calculate the kinetics and binding constants.
# human IL-33 = target: T2, human IL-33; assay: cell-based or functional assay
Kd (human IL-33 (His-tagged)) [nM],"IC50 (M), IL-33 neutralization activity, HEK-BLUE IL-33 cells, human IL-33 at 160 pM (human IL-33) [M]",Binder
0.121,,"1E1v10 (antibody, human IgG1, V domains shown, Humanized 1E1 variant, human IgG1 backbone, expressed in Expi293F) VH: EVQLVESGGGLVQPGGSLRLSCAASGFTFNNYWMTWVRQAPGKGLEWVASITYTGGGTYYPDSVKGRFTISRDDAKSSLYLQMNSLRAEDTAVYYCTRANYYYNTYGGFPYWGQGTLVTVSS VL: DIQMTQSPSSLSASVGDRVTITCLASEGFSNDLAWYQQKPGKAPKSLIYAASRLQDGVPSRFSGSGSGTDFTLTISSLQPEDFATYFCQQGSKYPLTFGGGTKVEIK"
0.144,,"1E1v7 (antibody, human IgG1, V domains shown, Humanized 1E1 variant, human IgG1 backbone, expressed in Expi293F) VH: EVQLVESGGGLVQPGGSLRLSCAASGFTFNNYWMTWVRQAPGKGLEWVASITYTGGGTYYPDSVKGRFTISRDNAKSSLYLQMNSLRAEDTAVYYCTRANYYYNTYGGFPYWGQGTLVTVSS VL: DIQMTQSPSSLSASVGDRVTITCLASEGFSNDLAWYQQKPGKSPKLLIYAASRLQDGVPSRFSGSGSGTDFTLTISSLQPEDFATYFCQQGSKYPLTFGGGTKVEIK"
0.132,,"1E1v6 (antibody, human IgG1, V domains shown, Humanized 1E1 variant, human IgG1 backbone, expressed in Expi293F) VH: EVQLVESGGGLVQPGGSLRLSCAASGFTFNNYWMTWVRQAPGKGLEWVASITYTGGGTYYPDSVKGRFTISRDDAKNSLYLQMNSLRAEDTAVYYCTRANYYYNTYGGFPYWGQGTLVTVSS VL: DIQMTQSPSSLSASVGDRVTITCLASEGFSNDLAWYQQKPGKSPKLLIYAASRLQDGVPSRFSGSGSGTDFTLTISSLQPEDFATYFCQQGSKYPLTFGGGTKVEIK"
0.163,2.44e-11,"1E1v12 (antibody, human IgG1, V domains shown, Humanized 1E1 variant, human IgG1 backbone, expressed in Expi293F) VH: EVQLVESGGGLVQPGGSLRLSCAASGFTFNNYWMTWVRQAPGKGLEWVASITYTGGGTYYPDSVKGRFTISRDNAKSSLYLQMNSLRAEDTAVYYCTRANYYYNTYGGFPYWGQGTLVTVSS VL: DIQMTQSPSSLSASVGDRVTITCLASEGFSNDLAWYQQKPGKAPKSLIYAASRLQDGVPSRFSGSGSGTDFTLTISSLQPEDFATYFCQQGSKYPLTFGGGTKVEIK"
0.118,3.11e-11,"1E1v8 (human IgG1) (antibody, V domains shown) VH: EVQLVESGGGLVQPGGSLRLSCAASGFTFNNYWMTWIRQAPGKGLEWVASITYTGGGTYYPDSVKGRFTISRDDAKSSLYLQMNSLRAEDTAVYYCTRANYYYNTYGGFPYWGQGTLVTVSS VL: DIQMTQSPSSLSASVGDRVTITCLASEGFSNDLAWYQQKPGKSPKLLIYAASRLQDGVPSRFSGSGSGTDFTLTISSLQPEDFATYFCQQGSKYPLTFGGGTKVEIK"
0.179,,"1E1v16 (antibody, human IgG1, V domains shown, Humanized 1E1 variant, human IgG1 backbone, expressed in Expi293F) VH: EVQLVESGGGLVQPGGSLRLSCAASGFTFNNYWMTWVRQAPGKGLEWVASITYTGGGTYYPDSVKGRFTISRDDAKNSLYLQMNSLRAEDTAVYYCTRANYYYNTYGGFPYWGQGTLVTVSS VL: DIQMTQSPSSLSASVGDRVTITCLASEGFSNDLAWFQQKPGKAPKSLIYAASRLQDGVPSRFSGSGSGTDFTLTISSLQPEDFATYFCQQGSKYPLTFGGGTKVEIK"
0.285,,"1E1v17 (antibody, human IgG1, V domains shown, Humanized 1E1 variant, human IgG1 backbone, expressed in Expi293F) VH: EVQLVESGGGLVQPGGSLRLSCAASGFTFNNYWMTWVRQAPGKGLEWVASITYTGGGTYYPDSVKGRFTISRDNAKSSLYLQMNSLRAEDTAVYYCTRANYYYNTYGGFPYWGQGTLVTVSS VL: DIQMTQSPSSLSASVGDRVTITCLASEGFSNDLAWFQQKPGKAPKSLIYAASRLQDGVPSRFSGSGSGTDFTLTISSLQPEDFATYFCQQGSKYPLTFGGGTKVEIK"
0.146,,"1E1v22 (antibody, human IgG1, V domains shown, Humanized 1E1 variant, human IgG1 backbone, expressed in Expi293F) VH: EVQLVESGGGLVQPGGSLRLSCAASGFTFNNYWMTWVRQAPGKGLEWVASITYTGGGTYYPDSVKGRFTISRDNAKSSLYLQMNSLRAEDTAVYYCTRANYYYNTYGGFPYWGQGTLVTVSS VL: DIQMTQSPSSLSASVGDRVTITCLASEGFSNDLAWYQQKPGKAPKSLIYAASRLQDGVPSRFSGSGSGTDFTLTISSLQPEDFATYYCQQGSKYPLTFGGGTKVEIK"
0.151,,"1E1v23 (antibody, human IgG1, V domains shown, Humanized 1E1 variant, human IgG1 backbone, expressed in Expi293F) VH: EVQLVESGGGLVQPGGSLRLSCAASGFTFNNYWMTWVRQAPGKGLEWIASITYTGGGTYYPDSVKGRFTISRDDAKSSLYLQMNSLRAEDTAVYYCTRANYYYNTYGGFPYWGQGTLVTVSS VL: DIQMTQSPSSLSASVGDRVTITCLASEGFSNDLAWYQQKPGKAPKSLIYAASRLQDGVPSRFSGSGSGTDFTLTISSLQPEDFATYYCQQGSKYPLTFGGGTKVEIK"
0.129,3.05e-11,"1E1v9 (antibody, human IgG1, V domains shown, Humanized 1E1 variant, human IgG1 backbone, expressed in Expi293F) VH: EVQLVESGGGLVQPGGSLRLSCAASGFTFNNYWMTWIRQAPGKGLEWIASITYTGGGTYYPDSVKGRFTISRDDAKSSLYLQMNSLRAEDTAVYYCTRANYYYNTYGGFPYWGQGTLVTVSS VL: DIQMTQSPSSLSASVGDRVTITCLASEGFSNDLAWYQQKPGKAPKSLIYAASRLQDGVPSRFSGSGSGTDFTLTISSLQPEDFATYFCQQGSKYPLTFGGGTKVEIK"
0.203,,"1E1v2 (antibody, human IgG1, V domains shown, Humanized 1E1 variant, human IgG1 backbone, expressed in Expi293F) VH: EVQLVESGGGLVQPGGSLRLSCAASGFTFNNYWMTWIRQAPGKGLEWIASITYTGGGTYYPDSVKGRFTISRDDAKSSLYLQMNSLRAEDTAVYYCTRANYYYNTYGGFPYWGQGTLVTVSS VL: DIQMTQSPSSLSASVGDRVTITCLASEGFSNDLAWFQQKPGKAPKSLIYAASRLQDGVPSRFSGSGSGTDFTLTISSLQPEDFATYYCQQGSKYPLTFGGGTKVEIK"
0.195,,"1E1v15 (antibody, human IgG1, V domains shown, Humanized 1E1 variant, human IgG1 backbone, expressed in Expi293F) VH: EVQLVESGGGLVQPGGSLRLSCAASGFTFNNYWMTWVRQAPGKGLEWVASITYTGGGTYYPDSVKGRFTISRDDAKSSLYLQMNSLRAEDTAVYYCTRANYYYNTYGGFPYWGQGTLVTVSS VL: DIQMTQSPSSLSASVGDRVTITCLASEGFSNDLAWFQQKPGKAPKSLIYAASRLQDGVPSRFSGSGSGTDFTLTISSLQPEDFATYFCQQGSKYPLTFGGGTKVEIK"
0.149,,"1E1v3 (antibody, human IgG1, V domains shown, Humanized 1E1 variant, human IgG1 backbone, expressed in Expi293F) VH: EVQLVESGGGLVQPGGSLRLSCAASGFTFNNYWMTWVRQAPGKGLEWVASITYTGGGTYYPDSVKGRFTISRDNAKNSLYLQMNSLRAEDTAVYYCTRANYYYNTYGGFPYWGQGTLVTVSS VL: DIQMTQSPSSLSASVGDRVTITCLASEGFSNDLAWYQQKPGKSPKLLIYAASRLQDGVPSRFSGSGSGTDFTLTISSLQPEDFATYFCQQGSKYPLTFGGGTKVEIK"
0.144,,"1E1v5 (antibody, human IgG1, V domains shown, Humanized 1E1 variant, human IgG1 backbone, expressed in Expi293F) VH: EVQLVESGGGLVQPGGSLRLSCAASGFTFNNYWMTWVRQAPGKGLEWVASITYTGGGTYYPDSVKGRFTISRDDAKSSLYLQMNSLRAEDTAVYYCTRANYYYNTYGGFPYWGQGTLVTVSS VL: DIQMTQSPSSLSASVGDRVTITCLASEGFSNDLAWYQQKPGKSPKLLIYAASRLQDGVPSRFSGSGSGTDFTLTISSLQPEDFATYFCQQGSKYPLTFGGGTKVEIK"
0.172,,"1E1v18 (antibody, human IgG1, V domains shown, Humanized 1E1 variant, human IgG1 backbone, expressed in Expi293F) VH: EVQLVESGGGLVQPGGSLRLSCAASGFTFNNYWMTWVRQAPGKGLEWIASITYTGGGTYYPDSVKGRFTISRDDAKSSLYLQMNSLRAEDTAVYYCTRANYYYNTYGGFPYWGQGTLVTVSS VL: DIQMTQSPSSLSASVGDRVTITCLASEGFSNDLAWFQQKPGKAPKSLIYAASRLQDGVPSRFSGSGSGTDFTLTISSLQPEDFATYFCQQGSKYPLTFGGGTKVEIK"
0.163,,"1E1v14 (antibody, human IgG1, V domains shown, Humanized 1E1 variant, human IgG1 backbone, expressed in Expi293F) VH: EVQLVESGGGLVQPGGSLRLSCAASGFTFNNYWMTWIRQAPGKGLEWIASITYTGGGTYYPDSVKGRFTISRDDAKSSLYLQMNSLRAEDTAVYYCTRANYYYNTYGGFPYWGQGTLVTVSS VL: DIQMTQSPSSLSASVGDRVTITCLASEGFSNDLAWFQQKPGKAPKSLIYAASRLQDGVPSRFSGSGSGTDFTLTISSLQPEDFATYFCQQGSKYPLTFGGGTKVEIK"
0.123,,"1E1v11 (antibody, human IgG1, V domains shown, Humanized 1E1 variant, human IgG1 backbone, expressed in Expi293F) VH: EVQLVESGGGLVQPGGSLRLSCAASGFTFNNYWMTWVRQAPGKGLEWVASITYTGGGTYYPDSVKGRFTISRDDAKNSLYLQMNSLRAEDTAVYYCTRANYYYNTYGGFPYWGQGTLVTVSS VL: DIQMTQSPSSLSASVGDRVTITCLASEGFSNDLAWYQQKPGKAPKSLIYAASRLQDGVPSRFSGSGSGTDFTLTISSLQPEDFATYFCQQGSKYPLTFGGGTKVEIK"
0.295,,"1E1v1 (antibody, human IgG1, V domains shown, Humanized 1E1 variant, human IgG1 backbone, expressed in Expi293F) VH: EVQLVESGGGLVQPGGSLRLSCAASGFTFNNYWMTWVRQAPGKGLEWVASITYTGGGTYYPDSVKGRFTISRDNAKNSLYLQMNSLRAEDTAVYYCTRANYYYNTYGGFPYWGQGTLVTVSS VL: DIQMTQSPSSLSASVGDRVTITCLASEGFSNDLAWFQQKPGKAPKSLIYAASRLQDGVPSRFSGSGSGTDFTLTISSLQPEDFATYYCQQGSKYPLTFGGGTKVEIK"
0.154,3.11e-11,"1E1v4 (antibody, human IgG1, V domains shown, Humanized 1E1 variant, human IgG1 backbone, expressed in Expi293F) VH: EVQLVESGGGLVQPGGSLRLSCAASGFTFNNYWMTWIRQAPGKGLEWIASITYTGGGTYYPDSVKGRFTISRDDAKSSLYLQMNSLRAEDTAVYYCTRANYYYNTYGGFPYWGQGTLVTVSS VL: DIQMTQSPSSLSASVGDRVTITCLASEGFSNDLAWYQQKPGKSPKLLIYAASRLQDGVPSRFSGSGSGTDFTLTISSLQPEDFATYFCQQGSKYPLTFGGGTKVEIK"
